Source: the RNAGym collection of RNA variant scans (doi:10.7554/elife.90254)

B1: OR4K15 (parent)
chain: GUUAACGGUCAUAGGCCAUGGAAACUAGGAGCACCAUUUCGCUGCCAGUGAAGAAAUGAACAAAGAAAAUCUGGGCCAGGCAGGCAUCAAAAGAAAUAGUCUUGCGCUCAACCAGAAAGUCUGUAAUCAUUUUAAGGGUA

Variants of: B1
Assay: self-cleavage, relative activity (ratio to wild type); higher = more cleavage; in vitro, sequencing; the parent is a self-cleaving ribozyme

| Variant | self-cleavage |
| --- | --- |
| C34U A110G | 0.19 |
| A118U U120A | 1.68 |
| A54G U139C | 1.68 |
| A114C A125G | 0.01 |
| G50A A60C | 1.9 |
| A62G G73A | 0.15 |
| A55U U120C | 0.86 |
| U43A U49C | 1.49 |
| U87C U131A | 0.39 |
| U19G A23G | 0.83 |
| A18U U39C | 1.81 |
| A30U U72C | 0.27 |
| A24C A62C | 2.03 |
| A23G A89G | 1.32 |
| U103A A110G | 0.2 |
| A55G U72A | 0.19 |
| U37C A59C | 1.08 |
| U19A U120G | 1.35 |
| G8A A129U | 1.63 |
| A69U U72C | 0.36 |
| U38A U43C | 1.3 |
| U2C U39C | 0.7 |
| G53A A91G | 1.6 |
| A78U U127A | 0.8 |

| Variant | self-cleavage |
| --- | --- |
| G83A A86G | 2.15 |
| A24G A33G | 0.85 |
| U3C C71U | 0.12 |
| A59G A129G | 1.16 |
| A22U U43C | 1.81 |
| A67G C76U | 0.07 |
| A67G A134G | 1.7 |
| A92G A114C | 0.04 |
| A18G U130A | 1.84 |
| A91U U124A | 0.84 |
| U12C A78U | 0.34 |
| A82U A134G | 0.16 |
| U12A A66G | 0.9 |
| A62U A96G | 1.69 |
| A95G A96G | 1.25 |
| G50C | 1.54 |
| A78G A91G | 0.13 |
| A60G A67G | 0.84 |
| C32U A69G | 1.21 |
| A27U A96G | 1.6 |
| U38C G75A | 0.13 |
| A98G | 0.44 |
| A47U A59U | 0.57 |
| A64U A86G | 1.85 |

| Variant | self-cleavage |
| --- | --- |
| U26C A62U | 1.84 |
| A5U A116U | 0.35 |
| A54U U108C | 0.01 |
| U49C A56C | 1.25 |
| G83A G93U | 2.03 |
| A62G U103C | 0.98 |
| A63U U100A | 0.96 |
| G15U A62G | 2.71 |
| A67G U120C | 0.83 |
| A36U C107G | 0.03 |
| U43A A135G | 1.91 |
| U49C A51U | 0.99 |
| A111G G138U | 0.01 |
| A55G A117G | 0.76 |
| U12A U38G | 1.9 |
| U2C A63G | 1.12 |
| U2C U43A | 1 |
| G75A A95G | 0.05 |
| A82G U103C | 2.05 |
| A36G U131A | 0.59 |
| U72C U131A | 0.1 |
| A66G U127A | 2.35 |
| A82G | 0.4 |
| A4G U39G | 1.88 |

| Variant | self-cleavage |
| --- | --- |
| A51G A64G | 1.42 |
| C77U A126U | 1.88 |
| C16G A68U | 0.89 |
| G14U A96U | 1.13 |
| A30G A59U | 1.18 |
| A5G G73A | 0.21 |
| A36U A47G | 1.03 |
| U49C U72A | 0.15 |
| A59U A69G | 1.51 |
| G21A A116G | 0.46 |
| U38A A90U | 2.21 |
| U19C A90U | 1.49 |
| A22G A90G | 1.12 |
| U43C A114C | 0.03 |
| U43A A96G | 2.07 |
| U3C U102A | 0.38 |
| U19C A54C | 1.2 |
| U26A A27G | 0.9 |
| A5G U124A | 0.54 |
| A5G U57C | 0.68 |
| U38C A47G | 0.74 |
| A55G A110C | 0.2 |
| A78U A89U | 0.35 |
| A5G U131C | 0.56 |

| Variant | self-cleavage |
| --- | --- |
| A24G U131C | 1.17 |
| A24C A30U | 0.99 |
| U2C A91U | 0.81 |
| G73A A95G | 0.28 |
| A64G A96U | 0.91 |
| A52G G106C | 0.02 |
| U19C A30G | 0.94 |
| U102C G106A | 0.02 |
| A22U U97C | 0.69 |
| A92U A117G | 2.08 |
| G31U A52G | 1.71 |
| G65U A86G | 0.19 |
| A4U U108C | 0.09 |
| A67U A94G | 1.22 |
| A92U A129U | 1 |
| G106U U127C | 0.01 |
| U26C C77U | 1.77 |
| G104U A117G | 0.02 |
| C35U A94G | 0.64 |
| U9C A22G | 1.21 |
| C112U A129G | 0.01 |
| A18G A51U | 1.15 |
| A89G U108C | 0.02 |
| A60G A129U | 1.14 |

| Variant | self-cleavage |
| --- | --- |
| A68U | 1.83 |
| G7A A36U | 1.54 |
| U103C U108C | 0.01 |
| A13G U122A | 0.97 |
| A66U U72A | 0.2 |
| U49A U72G | 0.14 |
| U49C G104A | 0.04 |
| A23G G41C | 1.01 |
| A69G G80A | 0.12 |
| A52G A111G | 0.03 |
| A13U A63G | 1.3 |
| A36U A54C | 1.73 |
| U9C A82G | 0.58 |
| A11G U70A | 0.92 |
| A5U A91U | 1.64 |
| A22U A23G | 1.74 |
| G136A A140U | 2.39 |
| U72A G119A | 0.47 |
| U122C U131G | 0.88 |
| U9A U139A | 1.31 |
| U39G A129G | 0.86 |
| A110G A118G | 0.08 |
| U37C A118G | 1.36 |
| C17U A51G | 0.85 |

| Variant | self-cleavage |
| --- | --- |
| C40A A111G | 0.02 |
| G7A A62C | 1.41 |
| U2C U87C | 0.43 |
| U127A U130A | 1.95 |
| U2A A22G | 1.33 |
| A116U U131C | 0.11 |
| A64G C109U | 0.36 |
| U26C A30C | 0.98 |
| G15A A116G | 0.52 |
| A78U A98G | 0.06 |
| A95G A140U | 2.09 |
| A59U A126G | 1.26 |
| C16U A69U | 0.66 |
| U9C C46U | 1.03 |
| C76A A111U | 0.03 |
| A13G U108C | 0.05 |
| A111G A117C | 0 |
| A27U G99A | 0.6 |
| U2C C76U | 0.23 |
| A69G U108C | 0.02 |
| U12C A94G | 1.34 |
| A67G U70A | 0.72 |
| U12C A54G | 1.22 |
